In this experiment the target is archaeal KEOPS complex (pfuPcc1, mjKae1, mjBud32, mjCgi121) (Pyrococcus furiosus | Methanococcus jannaschii) (UniProt Q8TZI1). The experiment is described as follows: SEC-MALS.

With “archaeal KEOPS complex (pfuPcc1, mjKae1, mjBud32, mjCgi121) (from UniProt Q8TZI1 1-82; Q58530 1-328; Q58530 1-535; Q57646 1-145)”, the stoichiometry N was found to be 2.

One may read the stoichiometry N as a count of units in the complex or per binding partner.

The record behind these values is paper PMC5001605.
